# Assay results taken from article PMC7076219.
# Molecular target: ligands on KG1a cells (human (endogenous in KG1a))
# Assay: flow cytometry on cells; KG1a cells stained with 10 ug/ml E-selectin protein in HBSS with 5% FBS and 2 mM CaCl2, 4 °C, 20 min; detected by Strep-tag II mAb and PE anti-mouse IgG1
binder,measurement,value
E-S6 (monomeric full-length extracellular mouse E-selectin) (domain or fragment) WYYNASSELMTYDEASAYCQRDYTHLVAIQNKEEINYLNSNLKHSPSYYWIGIRKVNNVWIWVGTGKPLTEEAQNWAPGEPNNKQRNEDCVEIYIQRTKDSGMWNDERCNKKKLALCYTASCTNASCSGHGECIETINSYTCKCHPGFLGPNCEQAVTCKPQEHPDYGSLNCSHPFGPFSYNSSCSFGCKRGYLPSSMETTVRCTSSGEWSAPAPACHVVECEALTHPAHGIRKCSSNPGSYPWNTTCTFDCVEGYRRVGAQNLQCTSSGIWDNETPSCKAVTCDAIPQPQNGFVSCSHSTAGELAFKSSCNFTCEQSFTLQGPAQVECSAQGQWTPQIPVCKAVQCEALSAPQQGNMKCLPSASGPFQNGSSCEFSCEEGFELKGSRRLQCGPRGEWDSKKPTCSAVKCDDVPRPQNGVMECAHATTGEFTYKSSCAFQCNEGFSLHGSAQLECTSQGKWTQEVPSCQVVQCPSLDVPGKMNMSCSGTAVFGTVCEFTCPDDWTLNGSAVLTCGATGRWSGMPPTCEAPVSPTRP,percent of the live KG1a population bound,86%
